*1 amine or outer side, *2 acyl side, *3 side chain or, on linkers, in order; H or OH if unused. Where a SMILES comes first, the peptide text is derived from it. Where no end group is shown, it is not given here. [ ]: non-standard residue; d: D form. Cys(O2H) = cysteine sulfinic acid (N-terminal cysteine sulfinylated), O=C([C@H](CS(=O)O[*:3])N[*:1])[*:2]
Experiments:
[1] = molecular target: T1, ADO (2-aminoethanethiol dioxygenase), iron-bound wild type (Homo sapiens, UniProt Q96SZ5); assay: SPR binding of peptide/protein substrates to immobilised ADO; settings: 4 °C; for Kd / Equilibrium dissociation constant KD: SPR steady state, 1:1 binding model, biotinylated ADO on Biotin CAP chip, 20 mM Hepes pH 7.5, 500 mM NaCl, 10 mM DTT, 0.1% tween-20, geometric mean (± SD) of minimum three independent measurements; for Kd: read-out: Equilibrium dissociation constant KD; for Fold improvement in binding affinity (stronger) relative to native 14-residue peptide: relative to native IL32 peptide
T1 construct: Full-length human ADO (UniProt ID: Q96SZ5) was cloned; made in house; host or cells: Rosetta2(DE3) Escherichia coli
T1 sequence (Q96SZ5 1-270): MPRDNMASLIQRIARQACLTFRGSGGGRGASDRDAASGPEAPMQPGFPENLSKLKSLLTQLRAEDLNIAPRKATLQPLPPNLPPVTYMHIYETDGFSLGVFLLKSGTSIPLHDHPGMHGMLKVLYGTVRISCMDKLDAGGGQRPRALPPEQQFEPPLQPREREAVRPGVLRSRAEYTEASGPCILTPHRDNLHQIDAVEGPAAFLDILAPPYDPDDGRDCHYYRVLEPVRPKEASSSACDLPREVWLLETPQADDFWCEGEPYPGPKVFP
From the text: ADO catalyzes the O2-dependent sulfinylation of Nt-cys residues, which reportedly bind to the iron cofactor in a monodentate arrangement through ligation of the thiol group ([14], [15]). To test the importance of Nt-cys modifications and substitutions on ADO association, a SPR assay was established. […] Data collected under steady state conditions is presented in the main text and kinetic constants are provided in the Tables S1–S8 (alongside steady state measurements). All measurements were collected at 4 °C to minimize enzyme activity.
SPR measurements were made using a Biacore T200 (Cytiva) instrument and data were analyzed using the Biacore Insight Evaluation Software (Cytiva; https://www.cytivalifesciences.com/en/us/shop/protein-analysis/spr-label-free-analysis/spr-software-and-extensions/biacore-insight-evaluation-software-p-23528). Biotinylated-ADO was immobilized on a Biotin CAP chip (Cytiva) with a target density of ∼2500 to 3000 RU and peptide/protein substrates were injected over the chip. […] A buffer comprising 20 mM Hepes pH 7.5, 500 mM NaCl, 10 mM DTT, and 0.1% (v/v) tween-20 was used as the running buffer at a flow rate of 50 μl/min.
For metal-chelation experiments, a mixture of 10 mM 1, 10-phenanthroline and 100 mM EDTA (pH 8) was injected onto the chip using 10 × 60 s injections at a 100 μl/min flow rate. […] The instrument and chip were primed into buffer excluding reducing agents before conducting metal chelation and iron reconstitution.

[2] = molecular target: T2, 2-aminoethanethiol (cysteamine) dioxygenase (ADO), biotinylated, for SPR (human, UniProt Q96SZ5 1-270, biotin (N terminally biotinylated; 0.2 mM biotin added at induction)); assay: SPR; Biacore T200; biotinylated ADO immobilized on a Biotin CAP chip (∼2500 to 3000 RU), peptide/protein substrates injected; 4 °C; 20 mM Hepes pH 7.5, 500 mM NaCl, 10 mM DTT, 0.1% tween-20; 50 μl/min; multicycle, equilibrium steady state affinity 1:1 binding model; settings: both partners purified
T2 construct: 2-aminoethanethiol (cysteamine) dioxygenase (ADO), human, UniProt Q96SZ5, full length; In the chelation experiments the metal was removed and iron put back on the chip (see assays a2, a3); Used also as the ADO of the functional rows, although the enzyme assays used the pET28a-ADO construct (N-terminal His tag); also called WT ADO; native ADO; source: E. coli Rosetta2(DE3), pQE80L-Navi construct, …
T2 sequence (looked up): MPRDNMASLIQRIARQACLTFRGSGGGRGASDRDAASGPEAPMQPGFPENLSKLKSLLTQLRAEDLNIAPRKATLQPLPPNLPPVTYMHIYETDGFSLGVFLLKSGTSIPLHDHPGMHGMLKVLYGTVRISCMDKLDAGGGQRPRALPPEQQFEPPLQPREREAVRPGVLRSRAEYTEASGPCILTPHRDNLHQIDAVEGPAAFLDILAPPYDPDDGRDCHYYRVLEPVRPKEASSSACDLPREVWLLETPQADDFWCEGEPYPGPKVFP

[3] = molecular target: T3, 2-aminoethanethiol (cysteamine) dioxygenase (ADO), biotinylated, for SPR (human, UniProt Q96SZ5 1-270, biotin (N terminally biotinylated; 0.2 mM biotin added at induction)); assay: SPR
T3 chain: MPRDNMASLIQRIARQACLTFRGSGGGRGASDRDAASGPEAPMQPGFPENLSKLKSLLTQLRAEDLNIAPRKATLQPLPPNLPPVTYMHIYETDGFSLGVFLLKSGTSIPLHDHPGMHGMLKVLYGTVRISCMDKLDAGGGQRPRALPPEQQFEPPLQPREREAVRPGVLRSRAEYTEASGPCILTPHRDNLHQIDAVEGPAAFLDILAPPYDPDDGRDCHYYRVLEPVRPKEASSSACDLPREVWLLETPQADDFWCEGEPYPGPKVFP

## CC(C)C[C@H](NC(=O)CNC(=O)[C@H](CCCCN)NC(=O)[C@@H](N)CS)C(=O)N[C@@H](C)C(=O)N[C@@H](C)C(=O)N[C@@H](CC(C)C)C(=O)N1CCC[C@H]1C(=O)N[C@@H](Cc1c[nH]cn1)C(=O)N[C@@H](CO)C(=O)N[C@@H](CS)C(=O)N[C@@H](C)C(=O)N[C@@H](CCC(=O)O)C(=O)N[C@@H](CCCNC(=N)N)C(N)=O [RGS5-L13A] (H-CKGLAALPHSCAER-NH2)
[1]
  Kd: 260 ± 32 nM

## H-CFPAVLSDDMKKLK-NH2 (C-terminus assumed) [IL32-K5A]
[1]; SPR
  Fold improvement in binding affinity (stronger) relative to native 14-residue peptide: approximately 2 fold

## H-CFAKVLSDDMKKLK-NH2 (C-terminus assumed) [IL32-P4A]
[1]; SPR
  Fold improvement in binding affinity (stronger) relative to native 14-residue peptide: approximately 2 fold

## RGS5-C2A: RGS5 peptide with Nt-cys to alanine (AKGLAALPHSCLER)
[1]
  Equilibrium dissociation constant KD: No binding

## SKGLAALPHSCLER-NH2 [RGS5-C2S]
[1]
  Kd: 42000 ± 5500 nM

## H-CAPKVLSDDMKKLK-NH2 (C-terminus assumed) [IL32-F3A]
[1]; SPR, relative to native RGS5 or IL32 peptide
  Fold decrease in binding affinity (weaker/higher KD) relative to native 14-residue peptide: ~8 fold

## RGS5-Ox: Nt-sulfinylated RGS5 peptide acquired through preincubation with ADO ([Cys(O2H)]KGLAALPHSCLER)
[1]
  Equilibrium dissociation constant KD: No binding

## K3W: RGS5 third position mutant peptide (CWGLAALPHSCLER)
[1]
  Equilibrium dissociation constant KD: the most tolerated

## NC(=O)[C@@H]1CCCN1C(=O)[C@H](Cc1ccccc1)NC(=O)[C@@H](N)CS [IL32 tripeptide] (H-Cys-Phe-Pro-NH2; C-terminus assumed)
[1]
  Kd: 130 ± 3.7 nM
[1]; SPR
  Fold improvement in binding affinity (stronger) relative to native 14-residue peptide: ~2 fold

## Ac-RGS5: Nt-acetylated RGS5 peptide (Ac-CKGLAALPHSCLER; cysteine pairing not given here)
[1]
  Equilibrium dissociation constant KD: No binding

## CC(C)C[C@H](NC(=O)CNC(=O)[C@H](CCCCN)NC(=O)[C@@H](N)CS)C(=O)N[C@@H](C)C(=O)N[C@@H](C)C(=O)N[C@@H](CC(C)C)C(=O)N[C@@H](C)C(=O)N[C@@H](Cc1c[nH]cn1)C(=O)N[C@@H](CO)C(=O)N[C@@H](CS)C(=O)N[C@@H](CC(C)C)C(=O)N[C@@H](CCC(=O)O)C(=O)N[C@@H](CCCNC(=N)N)C(N)=O [RGS5-P9A] (H-CKGLAALAHSCLER-NH2)
[1]
  Kd: 250 ± 23 nM

## K3L: RGS5 third position mutant peptide (CLGLAALPHSCLER)
[1]
  Equilibrium dissociation constant KD: the most tolerated

## CC(C)C[C@H](NC(=O)CNC(=O)[C@H](CCCCN)NC(=O)[C@@H](N)CS)C(=O)N[C@@H](C)C(=O)N[C@@H](C)C(=O)N[C@@H](CC(C)C)C(=O)N1CCC[C@H]1C(=O)N[C@@H](Cc1c[nH]cn1)C(=O)N[C@@H](CO)C(=O)N[C@@H](CS)C(=O)N[C@@H](CC(C)C)C(=O)N[C@@H](C)C(=O)N[C@@H](CCCNC(=N)N)C(N)=O [RGS5-E14A] (H-CKGLAALPHSCLAR-NH2)
[1]
  Kd: 260 ± 42 nM

## K3R: RGS5 third position mutant peptide (CRGLAALPHSCLER)
[1]
  Equilibrium dissociation constant KD: the most tolerated

## K3Y: RGS5 third position mutant peptide (CYGLAALPHSCLER)
[1]
  Equilibrium dissociation constant KD: the most tolerated

B1: RGS5-C2S peptide (peptide, UniProt O15539 2-15, looked up)
peptide: SKGLAALPHSCLER
notes: RGS5 residues 2-15 (initiating methionine denoted as 1), Nt-cys to serine; source: synthetic peptide (SPPS, HPLC purified)
[2]
  Kd: ~40000 nM

B2: IL32-L7A peptide (peptide, UniProt P24001 2-15, looked up)
peptide: CFPKVASDDMKKLK
notes: IL32 residues 2-15 (initiating methionine denoted as 1), L7A; source: synthetic peptide (SPPS, HPLC purified)
[2]
  Kd: 570 ± 12 nM

## CKGLAALPHSALER [RGS5-C12A]
[3]
  Kd: 300 nM

B3: IL32-C2S peptide (peptide, UniProt P24001 2-15, looked up)
peptide: SFPKVLSDDMKKLK
notes: IL32 residues 2-15 (initiating methionine denoted as 1), Nt-cys to serine; source: synthetic peptide (SPPS, HPLC purified)
[2]
  Kd: ~40000 nM

## CKGLAALPHSCLEA [RGS5-R15A]
[3]
  Kd: 210 nM

## CKGLAALAHSCLER [RGS5-P9A]
[3]
  Kd: 250 nM

B4: RGS5^FL-C2A: full-length RGS5 C2A mutant (protein)
chain: MAKGLAALPHSCLERAKEIKIKLGILLQKPDSVGDLVIPYNEKPEKPAKTQKTSLDEALQWRDSLDKLLQNNYGLASFKSFLKSEFSEENLEFWIACEDYKKIKSPAKMAEKAKQIYEEFIQTEAPKEVNIDHFTKDITMKNLVEPSLSSFDMAQKRIHALMEKDSLPRFVRSEFYQELIK
modifications: left off: His tag, N-terminal, cleaved | SUMO, N-terminal, cleaved
notes: full-length RGS5 C2A mutant
[1]
  Equilibrium dissociation constant KD: prevented binding

B5: IL32-F3A peptide (peptide, UniProt P24001 2-15, looked up)
peptide: CAPKVLSDDMKKLK
notes: IL32 residues 2-15 (initiating methionine denoted as 1), F3A; source: synthetic peptide (SPPS, HPLC purified)
[2]
  Kd: 2200 ± 72 nM

B6: IL32-K5A peptide (peptide, UniProt P24001 2-15, looked up)
peptide: CFPAVLSDDMKKLK
notes: IL32 residues 2-15 (initiating methionine denoted as 1), K5A; source: synthetic peptide (SPPS, HPLC purified)
[2]
  Kd: 140 ± 2 nM

B7: RGS5-K3A peptide (peptide, UniProt O15539 2-15, looked up)
peptide: CAGLAALPHSCLER
notes: RGS5 residues 2-15 (initiating methionine denoted as 1), K3A; source: synthetic peptide (SPPS, HPLC purified)
[2]
  Kd: 540 ± 88 nM

B8: RGS5-K3Y peptide (peptide, UniProt O15539 2-15, looked up)
peptide: CYGLAALPHSCLER
notes: RGS5 residues 2-15 (initiating methionine denoted as 1), K3Y; source: synthetic peptide
[2]
  binding result: binds

B9: RGS5-K3R peptide (peptide, UniProt O15539 2-15, looked up)
peptide: CRGLAALPHSCLER
notes: RGS5 residues 2-15 (initiating methionine denoted as 1), K3R; source: synthetic peptide
[2]
  binding result: binds

B10: RGS5-K3D peptide (peptide, UniProt O15539 2-15, looked up)
peptide: CDGLAALPHSCLER
notes: RGS5 residues 2-15 (initiating methionine denoted as 1), K3D; source: synthetic peptide
[2]
  Kd: 39000 ± 1200 nM

B11: RGS5-K3W peptide (peptide, UniProt O15539 2-15, looked up)
peptide: CWGLAALPHSCLER
notes: RGS5 residues 2-15 (initiating methionine denoted as 1), K3W; source: synthetic peptide
[2]
  binding result: binds

B12: RGS5-K3L peptide (peptide, UniProt O15539 2-15, looked up)
peptide: CLGLAALPHSCLER
notes: RGS5 residues 2-15 (initiating methionine denoted as 1), K3L; source: synthetic peptide
[2]
  binding result: binds

B13: RGS5-G4A peptide (peptide, UniProt O15539 2-15, looked up)
peptide: CKALAALPHSCLER
notes: RGS5 residues 2-15 (initiating methionine denoted as 1), G4A; source: synthetic peptide (SPPS, HPLC purified)
[2]
  Kd: 710 ± 15 nM

## CKPLAALPHSCLER (peptide, UniProt O15539 2-15, looked up, source: synthetic peptide) [RGS5-G4P peptide]
[2]
  binding result: binds

B14: RGS5-G4K peptide (peptide, UniProt O15539 2-15, looked up)
peptide: CKKLAALPHSCLER
notes: RGS5 residues 2-15 (initiating methionine denoted as 1), G4K; source: synthetic peptide
[2]
  Kd: 12000 ± 1500 nM

B15: IL32-P4A peptide (peptide, UniProt P24001 2-15, looked up)
peptide: CFAKVLSDDMKKLK
notes: IL32 residues 2-15 (initiating methionine denoted as 1), P4A; source: synthetic peptide (SPPS, HPLC purified)
[2]
  Kd: 150 ± 1.2 nM

B16: full-length RGS5 (RGS5^FL) (natural protein)
chain: CKGLAALPHSCLERAKEIKIKLGILLQKPDSVGDLVIPYNEKPEKPAKTQKTSLDEALQWRDSLDKLLQNNYGLASFKSFLKSEFSEENLEFWIACEDYKKIKSPAKMAEKAKQIYEEFIQTEAPKEVNIDHFTKDITMKNLVEPSLSSFDMAQKRIHALMEKDSLPRFVRSEFYQELIK
[2]
  Kd: 3000 ± 58 nM

B17: RGS5^FL-C2S (natural protein)
chain: SKGLAALPHSCLERAKEIKIKLGILLQKPDSVGDLVIPYNEKPEKPAKTQKTSLDEALQWRDSLDKLLQNNYGLASFKSFLKSEFSEENLEFWIACEDYKKIKSPAKMAEKAKQIYEEFIQTEAPKEVNIDHFTKDITMKNLVEPSLSSFDMAQKRIHALMEKDSLPRFVRSEFYQELIK
[2]
  Kd: 63000 ± 610 nM

Reference: article PMC11406360, “The enzymatic oxygen sensor cysteamine dioxygenase binds its protein substrates through their N-termini” (The Journal of Biological Chemistry, 2024)
